According to the RNAGym collection of RNA variant scans (doi:10.7554/elife.90254):

B1: LINE1-full (parent)
chain: UACGUAGGUGGUUUUCCCCUGAUAGUGCUAAGGGGGCCUGGAAGUUUGGACUGGGCAGAGCUCAACACAGCGUGGCAAAGUGGCUGUGGCUAGACUGCCUCUCUGGAUUCCUCGUCACUCAGCAGGGCAUCUCUGAGAGAAAUGCC

Variants of: B1
Assay: self-cleavage, relative activity (ratio to wild type); higher = more cleavage; in vitro, sequencing; the parent is a self-cleaving ribozyme
U112A A117G showed a self-cleavage of 1.82.
Work on U112A A121C yielded a self-cleavage of 1.92.
U112A A121G gave a self-cleavage of 1.82.
U112A A129U showed a self-cleavage of 1.8.
Variant U112A A136G has a self-cleavage of 1.71.
Work on U112A A138G yielded a self-cleavage of 1.57.
U112A A138U showed a self-cleavage of 2.19.
U112A A140U gave a self-cleavage of 1.79.
With U112A A141G the self-cleavage was 1.43.
Variant U112A U115C has a self-cleavage of 1.3.
U112A U119A showed a self-cleavage of 0.
Variant U112A U119C has a self-cleavage of 2.45.
For U112A U130C, the self-cleavage was 1.6.
U112A U132A gave a self-cleavage of 1.69.
For U112A U134A, the self-cleavage was 1.09.
Work on U112A U134C yielded a self-cleavage of 1.56.
In the case of U112A U134G, the self-cleavage is reported as 1.73.
Work on U112A U143C yielded a self-cleavage of 0.83.
For U112C, the self-cleavage was 1.36.
U112C A117C gave a self-cleavage of 1.38.
With U112C A124C the self-cleavage was 0.77.
Variant U112C A124G has a self-cleavage of 0.64.
In the case of U112C A129U, the self-cleavage is reported as 1.67.
Work on U112C A136G yielded a self-cleavage of 1.51.
U112C A136U gave a self-cleavage of 1.84.
U112C A138U showed a self-cleavage of 1.23.
Variant U112C A140G has a self-cleavage of 0.83.
Work on U112C A141G yielded a self-cleavage of 1.57.
U112C A142G showed a self-cleavage of 1.43.
In the case of U112C C120U, the self-cleavage is reported as 1.37.
U112C C128U showed a self-cleavage of 1.35.
In the case of U112C C131U, the self-cleavage is reported as 1.87.
For U112C C145A, the self-cleavage was 1.39.
U112C G125A gave a self-cleavage of 1.6.
For U112C G126A, the self-cleavage was 1.64.
For U112C G127A, the self-cleavage was 1.35.
Variant U112C G135A has a self-cleavage of 1.44.
U112C G139A showed a self-cleavage of 1.36.
Variant U112C G144A has a self-cleavage of 1.58.
Work on U112C U115C yielded a self-cleavage of 1.29.
U112C U130A showed a self-cleavage of 1.59.
Work on U112C U132G yielded a self-cleavage of 1.53.
U112C U134A gave a self-cleavage of 0.61.
U112C U134C gave a self-cleavage of 1.23.
U112C U143G gave a self-cleavage of 1.81.
In the case of U112G, the self-cleavage is reported as 1.28.
For U112G A117U, the self-cleavage was 1.92.
With U112G A136C the self-cleavage was 0.61.
With U112G A142G the self-cleavage was 1.27.
In the case of U112G C116A, the self-cleavage is reported as 1.57.
U112G G139A gave a self-cleavage of 1.15.
C113A A136G gave a self-cleavage of 0.91.
Variant C113A U115A has a self-cleavage of 1.55.
Work on C113A U115C yielded a self-cleavage of 1.5.
For C113A U130C, the self-cleavage was 0.44.
In the case of C113A U132C, the self-cleavage is reported as 1.44.
C113A U134C showed a self-cleavage of 0.33.
Work on C113G C123U yielded a self-cleavage of 1.01.
Work on C113G G125U yielded a self-cleavage of 1.66.
C113G U119A gave a self-cleavage of 1.38.
C113U A117C showed a self-cleavage of 1.68.
C113U A117G showed a self-cleavage of 1.54.
With C113U A121G the self-cleavage was 0.68.
C113U A124G showed a self-cleavage of 1.31.
With C113U A129G the self-cleavage was 1.34.
C113U A129U showed a self-cleavage of 1.86.
Work on C113U A136U yielded a self-cleavage of 1.75.
In the case of C113U A140G, the self-cleavage is reported as 0.69.
Variant C113U A141G has a self-cleavage of 0.94.
With C113U A142G the self-cleavage was 0.91.
In the case of C113U C123U, the self-cleavage is reported as 1.35.
In the case of C113U C128U, the self-cleavage is reported as 1.17.
C113U C131G gave a self-cleavage of 1.32.
Variant C113U G126A has a self-cleavage of 1.62.
Work on C113U U115A yielded a self-cleavage of 1.05.
With C113U U115C the self-cleavage was 1.
Work on C113U U119A yielded a self-cleavage of 0.82.
Work on C113U U130C yielded a self-cleavage of 1.77.
In the case of C113U U143C, the self-cleavage is reported as 1.05.
In the case of G114A, the self-cleavage is reported as 1.17.
For G114A A117G, the self-cleavage was 1.27.
With G114A A117U the self-cleavage was 1.34.
G114A A121G gave a self-cleavage of 1.32.
For G114A A129G, the self-cleavage was 1.26.
Work on G114A A129U yielded a self-cleavage of 1.33.
G114A A136U gave a self-cleavage of 2.15.
For G114A A138G, the self-cleavage was 1.47.
With G114A A141G the self-cleavage was 0.89.
Work on G114A G122U yielded a self-cleavage of 1.5.
In the case of G114A G125U, the self-cleavage is reported as 1.49.
For G114A G127A, the self-cleavage was 1.74.
Work on G114A G127C yielded a self-cleavage of 1.34.
In the case of G114A U115C, the self-cleavage is reported as 1.58.
With G114A U119C the self-cleavage was 1.2.
Work on G114A U132A yielded a self-cleavage of 1.64.
Work on G114A U134C yielded a self-cleavage of 1.13.
In the case of G114C, the self-cleavage is reported as 1.63.
Work on G114C A138G yielded a self-cleavage of 1.41.
In the case of G114U, the self-cleavage is reported as 1.4.
G114U A140G showed a self-cleavage of 0.91.
Work on G114U A141G yielded a self-cleavage of 1.86.
Work on G114U A142C yielded a self-cleavage of 0.95.
Variant U115A has a self-cleavage of 1.36.
U115A A117U showed a self-cleavage of 1.82.
For U115A A124U, the self-cleavage was 1.79.
With U115A A129G the self-cleavage was 1.9.
For U115A A129U, the self-cleavage was 1.04.
U115A A136G showed a self-cleavage of 1.68.
U115A A138C showed a self-cleavage of 1.8.
Work on U115A A140G yielded a self-cleavage of 1.27.
Variant U115A A141G has a self-cleavage of 1.5.
For U115A A142G, the self-cleavage was 0.9.
With U115A A142U the self-cleavage was 1.38.
U115A C128U gave a self-cleavage of 1.23.
Work on U115A G122C yielded a self-cleavage of 1.09.
With U115A G137A the self-cleavage was 1.81.
Variant U115A U132A has a self-cleavage of 1.03.
U115A U132C gave a self-cleavage of 1.88.
U115A U132G gave a self-cleavage of 1.84.
Work on U115A U134A yielded a self-cleavage of 0.95.
U115A U143A showed a self-cleavage of 1.36.
Variant U115A U143C has a self-cleavage of 1.54.
Variant U115C has a self-cleavage of 1.58.
In the case of U115C A117G, the self-cleavage is reported as 1.4.
U115C A121C showed a self-cleavage of 1.66.
U115C A121G showed a self-cleavage of 1.42.
For U115C A121U, the self-cleavage was 2.06.
In the case of U115C A124C, the self-cleavage is reported as 2.09.
U115C A129G showed a self-cleavage of 1.64.
U115C A136U gave a self-cleavage of 1.99.
U115C A138G showed a self-cleavage of 1.79.
For U115C A140G, the self-cleavage was 1.58.
Work on U115C A140U yielded a self-cleavage of 1.39.
Work on U115C A141U yielded a self-cleavage of 1.27.
For U115C A142G, the self-cleavage was 2.05.
With U115C C131A the self-cleavage was 0.47.
For U115C C145G, the self-cleavage was 1.64.
Work on U115C C146A yielded a self-cleavage of 1.82.
With U115C G122A the self-cleavage was 1.77.
U115C G144A gave a self-cleavage of 2.69.
In the case of U115C U119C, the self-cleavage is reported as 2.04.
With U115C U130G the self-cleavage was 0.66.
Variant U115C U134C has a self-cleavage of 1.61.
U115C U143G gave a self-cleavage of 2.45.
With U115G the self-cleavage was 1.5.
For U115G A129G, the self-cleavage was 1.16.
U115G A136G gave a self-cleavage of 1.53.
In the case of U115G A138G, the self-cleavage is reported as 2.15.
U115G A140G showed a self-cleavage of 2.
Work on U115G A141G yielded a self-cleavage of 1.25.
U115G C145U showed a self-cleavage of 1.1.
In the case of U115G G125U, the self-cleavage is reported as 0.54.
U115G U119A gave a self-cleavage of 1.36.
Work on C116A A121U yielded a self-cleavage of 1.21.
Work on C116A A124G yielded a self-cleavage of 1.25.
Work on C116A A142C yielded a self-cleavage of 1.54.
With C116A U119C the self-cleavage was 1.27.
For C116A U132A, the self-cleavage was 0.67.
Work on C116A U143C yielded a self-cleavage of 0.71.
In the case of C116G U134C, the self-cleavage is reported as 0.99.
In the case of C116U A121G, the self-cleavage is reported as 1.57.
Work on C116U A124C yielded a self-cleavage of 1.6.
C116U A124U showed a self-cleavage of 1.87.
C116U A129G gave a self-cleavage of 0.93.
C116U A138U gave a self-cleavage of 1.41.
Variant C116U A140U has a self-cleavage of 0.71.
For C116U A141G, the self-cleavage was 1.42.
